# Source: PMC8887749, “The interaction of dengue virus capsid protein with negatively charged interfaces drives the in vitro assembly of nucleocapsid-like particles”
# Tests used:
# [1] = target: Dengue virus capsid (C) protein, recombinant DENVC (dengue virus serotype 2) (UniProt P29990); experiment: SAXS
# [2] = target: DENV capsid protein (DENVC) (Dengue virus serotype 2, UniProt P29990 1-100); experiment: fluorescence anisotropy; FITC-DENVC 50 nM; 1:1 DENVC:oligo stoichiometry; affinity stated only as nanomolar range; 55 mM NaH2PO4, 200 mM NaCl, 5 mM EDTA, pH 7.4, 25 C; conditions: protein: recombinant; chain copies: 2; single strand
# Sequence of DENV capsid protein (DENVC) (P29990 1-100): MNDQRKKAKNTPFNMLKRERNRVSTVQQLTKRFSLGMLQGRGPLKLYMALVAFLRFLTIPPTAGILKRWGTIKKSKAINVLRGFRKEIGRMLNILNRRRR
# Sequence of Dengue virus capsid (C) protein, recombinant DENVC (P29990 1-100): as above
Molecule,stoichiometry N [1],binding result [2]
"Dengue virus capsid (C) protein, recombinant DENVC (from UniProt P29990 1-100) (natural protein)",2,–
GGGGG (ssDNA) [5-mer ssDNA],–,binds
TCCATGGTAGACAGAGGATGGGGGA (ssDNA) [25-mer ssDNA],–,binds
